Experimental data as given in the supplement of paper PMC9170038.

Assays:
MS2 coat protein [1] = experiment: apparent KD of MS2 coat protein, switch ON state; designed switch direction (-1 OFF switch, 1 ON switch): -1; higher = weaker reporter binding; conditions: FMN input: 0 or 200 uM; Eterna round: R93 (includes R88 designs)
Method in brief: (§1)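 Apparent KD stands for the median, per design, of fits to normalised cluster binding curves. The curves came from titrating on-chip-transcribed RNA switches on Illumina sequencing clusters with SNAP-549-labelled MS2 coat protein, twofold from 0.7 or 1.5 nM to 3 µM. Buffer was 100 mM Tris-HCl pH 7.5, 80 mM KCl, 4 mM MgCl2, without or with constant ligand.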

MS2 coat protein [2] = experiment: apparent KD of MS2 coat protein, switch OFF state (with FMN for OFF switches, without FMN for ON switches); designed switch direction (-1 OFF switch, 1 ON switch): -1; higher = weaker reporter binding; conditions: FMN input: 0 or 200 uM; Eterna round: R93 (includes R88 designs)
Method in brief: as §1

## AGGAAACAUGAGGAUCACCCAUGUGAGGAUAUUGAAAAGAAAAGAAAAGAAAGAAGAACAAGAAGGCACAAGAA [Tiu]
MS2 coat protein [1]
  apparent KD of MS2 coat protein: 29.6 nM
MS2 coat protein [2]
  apparent KD of MS2 coat protein: 31.5 nM

## AACAGUACAGGAUAUACAUGAGGAUCACCCAUGUAAAAAGGGAGUGGCGUACCACAAAGUAGAAGGGUACUGGA [Moding Maslow revisited (73) 7]
MS2 coat protein [1]
  apparent KD of MS2 coat protein: 36.9 nM
MS2 coat protein [2]
  apparent KD of MS2 coat protein: 172 nM

## AAAAAGUGAGGAUAUACGAAAAAAAAAAAAAAAAAAGGUGAACAUGAGGAUCACCCAUGUAGAAGGCACAAAAA [Black Design]
MS2 coat protein [1]
  apparent KD of MS2 coat protein: 102 nM
MS2 coat protein [2]
  apparent KD of MS2 coat protein: 312 nM

## AGACAUACAGGAUAUACAUGGGAAAAAAAAAAAAAAAUUCUACAUGAGGAUCACCCAUGUAGAAGGGUAUGUCA [Ex2 Design 171: Random 1B]
MS2 coat protein [1]
  apparent KD of MS2 coat protein: 81.1 nM
MS2 coat protein [2]
  apparent KD of MS2 coat protein: 31.1 nM

## ACAAGCCUAGGAUAUACAUGAGGAUCACCCAUGUGAAAGAACCGGUGACUCCUGGAAAGUAGAAGGAGGAAUCG [Biatla]
MS2 coat protein [1]
  apparent KD of MS2 coat protein: 44.7 nM
MS2 coat protein [2]
  apparent KD of MS2 coat protein: 40.1 nM

## AAAAAGGGAGGAUAUACAUGAGGAUCACCCAUGUAAAAAAAAAAAAAAGGGAGGGAAGGUAGAAGGCCCAAAAA [Excls3-II]
MS2 coat protein [1]
  apparent KD of MS2 coat protein: 39.6 nM
MS2 coat protein [2]
  apparent KD of MS2 coat protein: 52.5 nM

## AAGAAGGUAGGAUAUACAUGAGGAUCACCCAUGUAAAAGAAAGAAAGGGAAAAGAAAAGUAGAAGGACCAAGAA [Usermaatre Amenemope]
MS2 coat protein [1]
  apparent KD of MS2 coat protein: 23.5 nM
MS2 coat protein [2]
  apparent KD of MS2 coat protein: 27.4 nM

## AAAAGGAUAGGAUAUACAUGAGGAUCACCCAUGUGAAUAAAUAAAAUAAAUAAAUAAAGUAGAAGGGUCAAUAA [LROPPY Exclusion 3 - v05_deltaG=3.6 break up the As]
MS2 coat protein [1]
  apparent KD of MS2 coat protein: 27.8 nM
MS2 coat protein [2]
  apparent KD of MS2 coat protein: 25.4 nM

## AAAAAGUCAGGAUAUGUAGCAAAAAGUGAUCCAAAAAAGCUACAGAAGGGACAUGAGGAUCACCCAUGUAAAAA [Ex4: 931]
MS2 coat protein [1]
  apparent KD of MS2 coat protein: 86.5 nM
MS2 coat protein [2]
  apparent KD of MS2 coat protein: 98.2 nM

## CCCAUGUCAGGAUAUCAGUAGUAAAAAAAAAAAAUUACUACUGAGAAGGGACAUGAGGAUCACCCAUGUCCAAA [EX4 316: Super Stable 16]
MS2 coat protein [1]
  apparent KD of MS2 coat protein: 61.7 nM
MS2 coat protein [2]
  apparent KD of MS2 coat protein: 38.7 nM

## ACUUAUGAAGGAUAUACUAACAACAUACACUCAACACACACACAUGAGGAUCACCCAUGUAGAAGGUCAAACAU [JR_Exc002_Sub1205]
MS2 coat protein [1]
  apparent KD of MS2 coat protein: 19.6 nM
MS2 coat protein [2]
  apparent KD of MS2 coat protein: 18.2 nM

## AUCUUGUCAGGAUAUGACUACAUAAAAAAAAAAAAAUGUAGUCAGAAGGGACAUGAGGAUCACCCAUGUACUAA [hsl_exclusion4]
MS2 coat protein [1]
  apparent KD of MS2 coat protein: 41.9 nM
MS2 coat protein [2]
  apparent KD of MS2 coat protein: 62.4 nM

## AAAAUGUGAGGAUAUCUGGAUAGGAAAAAGAAAACCUAUCCAGAGAAGGCACAUGAGGAUCACCCAUGUAAAAA [JL cataway mod 4]
MS2 coat protein [1]
  apparent KD of MS2 coat protein: 121 nM
MS2 coat protein [2]
  apparent KD of MS2 coat protein: 114 nM

## AACAUGUGAGGAUAUGUACGAAAAAAUAAAAAAAUAAAAGUACAGAAGGCACAUGAGGAUCACCCAUGUGAAAA [EX4 395: Minimal 8]
MS2 coat protein [1]
  apparent KD of MS2 coat protein: 176 nM
MS2 coat protein [2]
  apparent KD of MS2 coat protein: 271 nM

## GAAAAGGCAGGAUAUACAGGAUAUAGAAGGAGGAUAUAGAGACAUGAGGAUCACCCAUGUAGAAGGGCCAAAAG [Diamond 80]
MS2 coat protein [1]
  apparent KD of MS2 coat protein: 48.3 nM
MS2 coat protein [2]
  apparent KD of MS2 coat protein: 113 nM

## AGAAAGUGAGGAUAUUCGGAUAGGAAAACGAAAACCUAUCCGAAGAAGGCACAUGAGGAUCACCCAUGUAAAGA [Mat - Exaclusion 4 - Eli mod - D39]
MS2 coat protein [1]
  apparent KD of MS2 coat protein: 39.6 nM
MS2 coat protein [2]
  apparent KD of MS2 coat protein: 54 nM

## AAGGGACAUGAGGAUCACCCAUGUUAGGAUAUCGGAAAAGGAAAAAAAAAAAAGAAGACGAGAAGGGACACCAA
MS2 coat protein [1]
  apparent KD of MS2 coat protein: 59.5 nM
MS2 coat protein [2]
  apparent KD of MS2 coat protein: 48.8 nM

## AAAAAGGCAGGAUAUACAAAAAAAAAAAAAAAAAAGGAGGGACAUGAGGAUCACCCAUGUAGAAGGGCCAAAAA [Kai Theodor Erikson]
MS2 coat protein [1]
  apparent KD of MS2 coat protein: 97.4 nM
MS2 coat protein [2]
  apparent KD of MS2 coat protein: 121 nM

## AACAGUACAGGAUAUACAUGAGGAUCACCCAUGUAAAAAUAAUAAAAGGGAAAAACUCGUAGAAGGGUACUGGA [Moding Maslow revisited (73) 16]
MS2 coat protein [1]
  apparent KD of MS2 coat protein: 63.2 nM
MS2 coat protein [2]
  apparent KD of MS2 coat protein: 104 nM

## AAAAAACAUGAGGAUCACCCAUGUAAGGAUAUGCAGAUUAUAAGAAAAAAAAAAAAAAGCAGAAGGUACAAAAA [Default title]
MS2 coat protein [1]
  apparent KD of MS2 coat protein: 37.4 nM
MS2 coat protein [2]
  apparent KD of MS2 coat protein: 28.2 nM

## AAAAAACAUGAGGAUCACCCAUGUAAGGAUAUCGUGCAGAAAAAAAAAAAAAACUGCACGAGAAGGUACAAGGA [Brourd - Exclusion 1 - Sub 1]
MS2 coat protein [1]
  apparent KD of MS2 coat protein: 36.1 nM
MS2 coat protein [2]
  apparent KD of MS2 coat protein: 62.7 nM

## AAAAUGUGAGGAUAUGUACGAAAAAAUAAAAAAAUAAAAGUACAGAAGGCACAUGAGGAUCACCCAUGUGUGGG [EX4 400: Minimal 13]
MS2 coat protein [1]
  apparent KD of MS2 coat protein: 113 nM
MS2 coat protein [2]
  apparent KD of MS2 coat protein: 76.1 nM

## GAGAAGUGAGGAUAUCGAAGACAGACGAAAAGUCUGUCAAACGAGAAGGCACAUGAGGAUCACCCAUGUGGGAG [Mat - Exaclusion 4 - Eli mod - D75]
MS2 coat protein [1]
  apparent KD of MS2 coat protein: 81.2 nM
MS2 coat protein [2]
  apparent KD of MS2 coat protein: 302 nM

## AAAAAGGAAGGAUAUACGAACAUGUCAAAAGACGUGAAGGGACAUGAGGAUCACCCAUGUAGAAGGUUCAAAAA [JL Half Open 24]
MS2 coat protein [1]
  apparent KD of MS2 coat protein: 38.7 nM
MS2 coat protein [2]
  apparent KD of MS2 coat protein: 18.5 nM

## AGUUAGUCAGGAUAUGCGUGAAGAAUAAAAGAAAUAACAACGCAGAAGGGACAUGAGGAUCACCCAUGUAAACA [May 55]
MS2 coat protein [1]
  apparent KD of MS2 coat protein: 34.2 nM
MS2 coat protein [2]
  apparent KD of MS2 coat protein: 37.3 nM

## AAGAAUGCAGGAUAUACAAAAUAAAAGAAAAGAAAGAAAGAACAUGAGGAUCACCCAUGUAGAAGGGCAAAGAA [Menwadjre Sihathor]
MS2 coat protein [1]
  apparent KD of MS2 coat protein: 30 nM
MS2 coat protein [2]
  apparent KD of MS2 coat protein: 28.2 nM

## AACAGGUCAGGAUAUGUGGAAAAAAUAAAAAAAAUAAAAACACAGAAGGGACAUGAGGAUCACCCAUGUAAACA [May 23]
MS2 coat protein [1]
  apparent KD of MS2 coat protein: 47.2 nM
MS2 coat protein [2]
  apparent KD of MS2 coat protein: 60.4 nM

## UAACAGUCAGGAUAUGGACAAUACAAUACAAACAAAUAAAGCCAGAAGGGACAUGAGGAUCACCCAUGUAAACA [Simple]
MS2 coat protein [1]
  apparent KD of MS2 coat protein: 41.6 nM
MS2 coat protein [2]
  apparent KD of MS2 coat protein: 23 nM

## AAAAAGUAAGGAUAUACAAAAGAAAACACAAAAAAAAAAAAACAUGAGGAUCACCCAUGUAGAAGGUACAAAAA [Ex2 Malc#1]
MS2 coat protein [1]
  apparent KD of MS2 coat protein: 27.3 nM
MS2 coat protein [2]
  apparent KD of MS2 coat protein: 19.3 nM

## AAAAAGGGAGGAUAUGCAAAGGGAAAGGGAAAGGGAAAGGGACAUGAGGAUCACCCAUGUAGAAGGCUCAAAAA [scarecrow2]
MS2 coat protein [1]
  apparent KD of MS2 coat protein: 56.1 nM
MS2 coat protein [2]
  apparent KD of MS2 coat protein: 34 nM

## AAGAACCGAGGAUAUACAUGAGGAUCACCCAUGUAAAAGAAAGAAGGGAAAGAGAAAAGUAGAAGGCGGAAGAA [Usermaatre Shoshenq VI]
MS2 coat protein [1]
  apparent KD of MS2 coat protein: 36.1 nM
MS2 coat protein [2]
  apparent KD of MS2 coat protein: 34.3 nM

## AGAGAGAGAGGAUAUACAUGAGGAUCACCCAUGUAAAAGAAAGAAAAGGGAAAGAAAAGUAGAAGGCUCAGAGA [Ruby 65]
MS2 coat protein [1]
  apparent KD of MS2 coat protein: 31.6 nM
MS2 coat protein [2]
  apparent KD of MS2 coat protein: 53.5 nM

## AAAAACUGAGGAUAUACUUUGGGAAAAGAAAAGAUGAUGUUACAUGAGGAUCACCCAUGUAGAAGGCAGAAAAA [Mat - Exclusion 2 - Mod - D154]
MS2 coat protein [1]
  apparent KD of MS2 coat protein: 25.4 nM
MS2 coat protein [2]
  apparent KD of MS2 coat protein: 43 nM

## AGGAAACAUGAGGAUCACCCAUGUUAGGAUAUGAACGAAAUAAAAUAAAAAUAAAAGUUCAGAAGGGACAAAAA [Mat - Exclusion 1 - Eli mod - D20]
MS2 coat protein [1]
  apparent KD of MS2 coat protein: 24.9 nM
MS2 coat protein [2]
  apparent KD of MS2 coat protein: 49.6 nM
